The results in this text go back to patent US11833164B2, “Methods of treating Fabry disease in patients having a mutation in the GLA gene” (Amicus Therapeutics, Inc., priority 2019, dated 2023).

Residue numbers refer to the chain shown, from its start. Names and notes keep the numbering of the source.

The labels stand for the following.
B1: I289V (protein)
chain: MQLRNPELHLGCALALRFLALVSWDIPGARALDNGLARTPTMGWLHWERFMCNLDCQEEPDSCISEKLFMEMAELMVSEGWKDAGYEYLCIDDCWMAPQRDSEGRLQADPQRFPHGIRQLANYVHSKGLKLGIYADVGNKTCAGFPGSFGYYDIDAQTFADWGVDLLKFDGCYCDSLENLADGYKHMSLALNRTGRSIVYSCEWPLYMWPFQKPNYTEIRQYCNHWRNFADIDDSWKSIKSILDWTSFNQERIVDVAGPGGWNDPDMLVIGNFGLSWNQQVTQMALWAVMAAPLFMSNDLRHISPQAKALLQDKDVIAINQDPLGKQGYQLRQGDNFEVWERPLSGLAWAVAMINRQEIGGPRSYTIAVASLGKGVACNPACFITQLLPVKRKLGFYEWTSRLRSHINPTGTVLLQLENTMQMSLKDLL
B2: F295S (protein)
chain: B1 chain with V289I, F295S
B3: N298I (protein)
chain: B1 chain with V289I, N298I
B4: A292G (protein)
chain: B1 chain with V289I, A292G
B5: N298D (protein)
chain: B1 chain with V289I, N298D
B6: A292S (protein)
chain: B1 chain with V289I, A292S
B7: N298T (protein)
chain: B1 chain with V289I, N298T
B8: A291G (protein)
chain: B1 chain with V289I, A291G
B9: L294V (protein)
chain: B1 chain with V289I, L294V
B10: D299N (protein)
chain: B1 chain with V289I, D299N
B11: S297T (protein)
chain: B1 chain with V289I, S297T
B12: L294I (protein)
chain: B1 chain with V289I, L294I
B13: L300I (protein)
chain: B1 chain with V289I, L300I
B14: D299H (protein)
chain: B1 chain with V289I, D299H
B15: L294F (protein)
chain: B1 chain with V289I, L294F
B16: F295V (protein)
chain: B1 chain with V289I, F295V
B17: F295Y (protein)
chain: B1 chain with V289I, F295Y
B18: F295I (protein)
chain: B1 chain with V289I, F295I

The subject of one assay is mutant form of α-Gal A expressed in HEK-293 cells. As to the kind of experiment: HEK assay (GLP HEK / Migalastat Amenability Assay): α-Gal A activity in lysates of transiently transfected HEK-293 cells incubated with or without 10 μM migalastat. It is filed as cell-based, human. The following applies: 10 μM migalastat versus baseline. The gist of the method:
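Activity reported as 4-MU released (nmol/mg/hr), mean±SEM, from lysates of transiently transfected HEK-293 cells expressing mutant α-Gal A, cultured with or without 10 μM migalastat.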
For the molecule B1, the “Absolute increase (% WT)” value turned out to be 13.6 % WT and the Relative increase is 1.2.

Take B2: the “Absolute increase (% WT)” value stood at 10.5 % WT and the Relative increase is on record as 16.8.

Regarding B3, the “Absolute increase (% WT)” value came to 34.9 % WT and the Relative increase was 4.7.

B4: the “Absolute increase (% WT)” value came to 24.3 % WT and the Relative increase stood at 1.6.

In the case of B5, the “Absolute increase (% WT)” value was determined as 21.7 % WT and the Relative increase stood at 9.6.

On to B6, for which the “Absolute increase (% WT)” value is 21.3 % WT and the Relative increase was found to be 1.3.

Consider B7, for which the “Absolute increase (% WT)” value is listed as 14.2 % WT and the Relative increase stood at 1.2.

With B8, the “Absolute increase (% WT)” value turned out to be 34.9 % WT and the Relative increase came out at 2.3.

Regarding B9, the “Absolute increase (% WT)” value came to 33.8 % WT and the Relative increase was determined as 9.0.

For the molecule B10, the “Absolute increase (% WT)” value is 7.8 % WT and the Relative increase amounted to 1.2.

In the case of B11, the “Absolute increase (% WT)” value was found to be 9.7 % WT.

For the molecule B12, the “Absolute increase (% WT)” value stood at 53.6 % WT and the Relative increase is listed as 3.2.

As to B13, the “Absolute increase (% WT)” value is listed as 34.4 % WT and the Relative increase is recorded as 2.6.

Turning to B14, the “Absolute increase (% WT)” value stood at 22.1 % WT and the Relative increase worked out at 23.5.

As to B15, the “Absolute increase (% WT)” value was 38.8 % WT and the Relative increase is 2.3.

In the case of B16, the “Absolute increase (% WT)” value was determined as 48.0 % WT and the Relative increase is reported as 1.7.

B17: the “Absolute increase (% WT)” value is 36.3 % WT and the Relative increase is 1.6.

Consider B18, for which the “Absolute increase (% WT)” value amounted to 25.7 % WT and the Relative increase came out at 1.3.

The same assay, now with this note: absence of migalastat; percentage of baseline wild-type α-Gal A activity; mean ± SEM.
For the molecule B1, the “Baseline α-Gal A activity (% WT)” value is on record as 61.2 ± 3.2 % WT.

As to B2, the “Baseline α-Gal A activity (% WT)” value worked out at 0.6 ± 0.1 % WT.

In the case of B3, the “Baseline α-Gal A activity (% WT)” value was found to be 9.2 ± 0.7 % WT.

Take B4: the “Baseline α-Gal A activity (% WT)” value came out at 41.1 ± 2.2 % WT.

Turning to B5, the “Baseline α-Gal A activity (% WT)” value came to 2.5 ± 0.2 % WT.

As for B6, the “Baseline α-Gal A activity (% WT)” value was 68.6 ± 2.9 % WT.

As for B7, the “Baseline α-Gal A activity (% WT)” value came out at 61.2 ± 4.7 % WT.

In the case of B8, the “Baseline α-Gal A activity (% WT)” value is on record as 26.6 ± 1.5 % WT.

On to B9, for which the “Baseline α-Gal A activity (% WT)” value was 4.4 ± 0.3 % WT.

On to B10, for which the “Baseline α-Gal A activity (% WT)” value was determined as 29.2 ± 4.7 % WT.

As for B12, the “Baseline α-Gal A activity (% WT)” value is recorded as 24.8 ± 2.4 % WT.

Consider B13, for which the “Baseline α-Gal A activity (% WT)” value amounted to 20.7 ± 0.9 % WT.

In the case of B14, the “Baseline α-Gal A activity (% WT)” value came out at 1 ± 0.1 % WT.

Turning to B15, the “Baseline α-Gal A activity (% WT)” value came to 29.6 ± 3 % WT.

For the molecule B16, the “Baseline α-Gal A activity (% WT)” value was found to be 73.4 ± 5.7 % WT.

On to B17, for which the “Baseline α-Gal A activity (% WT)” value worked out at 62.9 ± 6.1 % WT.

Take B18: the “Baseline α-Gal A activity (% WT)” value was determined as 78.3 ± 4.5 % WT.

Still in this assay, the particulars now being: lysates of HEK-293 cells transiently transfected with the mutant form, incubated 5 days in absence of migalastat; mean ± SEM.
As to B1, the “Baseline α-Gal A activity” value came to 25845 ± 1706 nmol/mg/h.

Take B2: the “Baseline α-Gal A activity” value worked out at 230 ± 45 nmol/mg/h.

With B3, the “Baseline α-Gal A activity” value was determined as 2942 ± 262 nmol/mg/h.

For B4, the “Baseline α-Gal A activity” value stood at 12091 ± 652 nmol/mg/h.

Consider B5, for which the “Baseline α-Gal A activity” value amounted to 795 ± 56 nmol/mg/h.

As for B6, the “Baseline α-Gal A activity” value is 18002 ± 1127 nmol/mg/h.

Take B7: the “Baseline α-Gal A activity” value was found to be 20581 ± 1736 nmol/mg/h.

In the case of B8, the “Baseline α-Gal A activity” value is 6953 ± 474 nmol/mg/h.

As for B9, the “Baseline α-Gal A activity” value amounted to 1452 ± 71 nmol/mg/h.

Take B10: the “Baseline α-Gal A activity” value stood at 11973 ± 1961 nmol/mg/h.

As to B11, the “Baseline α-Gal A activity (nmol/mg/hr)” value was “BLD (“BLD” indicates that the mean α-Gal A activity was below the limit of detection (<142 nmol/mg/hr))”.

Consider B12, for which the “Baseline α-Gal A activity” value is 8345 ± 717 nmol/mg/h.

On to B13, for which the “Baseline α-Gal A activity” value was 7328 ± 448 nmol/mg/h.

Regarding B14, the “Baseline α-Gal A activity” value stood at 358 ± 36 nmol/mg/h.

As to B15, the “Baseline α-Gal A activity” value came out at 10147 ± 971 nmol/mg/h.

As to B16, the “Baseline α-Gal A activity” value was found to be 24973 ± 1752 nmol/mg/h.

As for B17, the “Baseline α-Gal A activity” value is 21452 ± 1929 nmol/mg/h.

In the case of B18, the “Baseline α-Gal A activity” value worked out at 26687 ± 1470 nmol/mg/h.

Still in this assay, the particulars now being: lysates of HEK-293 cells transiently transfected with the mutant form, incubated 5 days with 10 μM migalastat; mean ± SEM.
As to B1, the “10 μM migalastat α-Gal A activity” value stood at 31489 ± 1397 nmol/mg/h.

Take B2: the “10 μM migalastat α-Gal A activity” value was 3847 ± 309 nmol/mg/h.

Regarding B3, the “10 μM migalastat α-Gal A activity” value was 13906 ± 535 nmol/mg/h.

Turning to B4, the “10 μM migalastat α-Gal A activity” value stood at 19406 ± 1361 nmol/mg/h.

For the molecule B5, the “10 μM migalastat α-Gal A activity” value amounted to 7645 ± 388 nmol/mg/h.

Turning to B6, the “10 μM migalastat α-Gal A activity” value stood at 23779 ± 1584 nmol/mg/h.

B7: the “10 μM migalastat α-Gal A activity” value was determined as 25249 ± 1705 nmol/mg/h.

On to B8, for which the “10 μM migalastat α-Gal A activity” value is 16073 ± 954 nmol/mg/h.

Turning to B9, the “10 μM migalastat α-Gal A activity” value worked out at 13038 ± 880 nmol/mg/h.

As for B10, the “10 μM migalastat α-Gal A activity” value was 14668 ± 809 nmol/mg/h.

For B11, the “10 μM migalastat α-Gal A activity” value worked out at 3178 ± 327 nmol/mg/h.

As for B12, the “10 μM migalastat α-Gal A activity” value was determined as 26761 ± 1915 nmol/mg/h.

As for B13, the “10 μM migalastat α-Gal A activity” value was found to be 19317 ± 757 nmol/mg/h.

Take B14: the “10 μM migalastat α-Gal A activity” value was determined as 8424 ± 875 nmol/mg/h.

With B15, the “10 μM migalastat α-Gal A activity” value is 23486 ± 2100 nmol/mg/h.

B16: the “10 μM migalastat α-Gal A activity” value stood at 41782 ± 2877 nmol/mg/h.

Regarding B17, the “10 μM migalastat α-Gal A activity” value amounted to 34502 ± 2504 nmol/mg/h.

As to B18, the “10 μM migalastat α-Gal A activity” value stood at 35634 ± 2203 nmol/mg/h.

The same assay, now with this note: with 10 μM migalastat, 5 days; percentage of baseline wild-type α-Gal A activity; mean ± SEM.
Take B1: the “10 μM migalastat α-Gal A activity (% WT)” value is recorded as 74.8 ± 2.7 % WT.

Regarding B2, the “10 μM migalastat α-Gal A activity (% WT)” value is recorded as 11.1 ± 0.9 % WT.

Take B3: the “10 μM migalastat α-Gal A activity (% WT)” value was found to be 44.1 ± 1.8 % WT.

On to B4, for which the “10 μM migalastat α-Gal A activity (% WT)” value was 65.3 ± 4 % WT.

With B5, the “10 μM migalastat α-Gal A activity (% WT)” value was 24.2 ± 1.2 % WT.

In the case of B6, the “10 μM migalastat α-Gal A activity (% WT)” value was 89.9 ± 3.4 % WT.

As for B7, the “10 μM migalastat α-Gal A activity (% WT)” value is 75.4 ± 4.3 % WT.

As for B8, the “10 μM migalastat α-Gal A activity (% WT)” value was determined as 61.5 ± 2.6 % WT.

As for B9, the “10 μM migalastat α-Gal A activity (% WT)” value came out at 38.2 ± 2.7 % WT.

With B10, the “10 μM migalastat α-Gal A activity (% WT)” value came to 37.1 ± 2.9 % WT.

Consider B11, for which the “10 μM migalastat α-Gal A activity (% WT)” value was determined as 9.7 ± 0.8 % WT.

For the molecule B12, the “10 μM migalastat α-Gal A activity (% WT)” value came to 78.4 ± 6 % WT.

As to B13, the “10 μM migalastat α-Gal A activity (% WT)” value turned out to be 55.1 ± 2 % WT.

Turning to B14, the “10 μM migalastat α-Gal A activity (% WT)” value amounted to 23.1 ± 2.4 % WT.

For the molecule B15, the “10 μM migalastat α-Gal A activity (% WT)” value worked out at 68.4 ± 6.5 % WT.

On to B16, for which the “10 μM migalastat α-Gal A activity (% WT)” value is listed as 121.5 ± 7.7 % WT.

On to B17, for which the “10 μM migalastat α-Gal A activity (% WT)” value is 99.2 ± 6.5 % WT.

For B18, the “10 μM migalastat α-Gal A activity (% WT)” value is given as 104.1 ± 6.6 % WT.
